Where a SMILES comes first, the peptide text is derived from it. [ ]: non-standard residue; d: D form. The star is where a group is joined. X1 = O=C(CCCCCCCn1cnc2c(Br)c(Br)c(Br)c(Br)c21)*
Assays:
Experiment in all cases: Kinase panel residual activity
Assay type in all cases: biochemical
Conditions in all cases: compound at 1 micromolar
[1] = target: MKK2 (Homo sapiens, UniProt P36507)
[2] = target: HIPK3 (Homo sapiens, UniProt Q9H422)
[3] = target: MELK (Homo sapiens, UniProt Q14680)
[4] = target: T1, p38d MAPK (Homo sapiens, UniProt O15264)
T1 sequence (O15264 1-365): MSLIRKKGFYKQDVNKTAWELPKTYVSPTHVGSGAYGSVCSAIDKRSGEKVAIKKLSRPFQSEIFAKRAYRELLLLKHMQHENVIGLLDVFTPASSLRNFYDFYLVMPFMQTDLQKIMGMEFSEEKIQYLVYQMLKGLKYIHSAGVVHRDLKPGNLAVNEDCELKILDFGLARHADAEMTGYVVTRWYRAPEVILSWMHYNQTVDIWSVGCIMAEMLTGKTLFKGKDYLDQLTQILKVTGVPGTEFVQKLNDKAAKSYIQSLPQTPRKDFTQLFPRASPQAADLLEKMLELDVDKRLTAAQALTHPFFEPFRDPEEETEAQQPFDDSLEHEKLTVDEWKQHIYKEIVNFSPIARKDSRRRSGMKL

[5] = target: T2, MST2 (Homo sapiens, UniProt Q13188)
T2 sequence (Q13188 1-491): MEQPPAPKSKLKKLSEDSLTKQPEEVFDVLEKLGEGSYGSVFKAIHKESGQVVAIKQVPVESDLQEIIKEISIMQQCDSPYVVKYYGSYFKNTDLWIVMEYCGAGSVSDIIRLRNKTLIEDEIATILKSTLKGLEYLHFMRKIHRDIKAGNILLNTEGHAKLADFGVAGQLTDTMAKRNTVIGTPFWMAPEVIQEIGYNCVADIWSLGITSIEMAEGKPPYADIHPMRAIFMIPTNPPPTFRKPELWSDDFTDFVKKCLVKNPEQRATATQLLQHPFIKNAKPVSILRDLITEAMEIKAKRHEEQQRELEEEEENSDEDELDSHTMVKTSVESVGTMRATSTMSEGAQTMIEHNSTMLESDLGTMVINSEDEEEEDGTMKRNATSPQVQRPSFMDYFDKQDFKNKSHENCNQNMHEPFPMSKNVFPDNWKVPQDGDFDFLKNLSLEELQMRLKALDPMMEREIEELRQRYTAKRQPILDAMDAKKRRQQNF

[6] = target: T3, ULK2 (Homo sapiens, UniProt Q8IYT8)
T3 sequence (Q8IYT8 1-1036): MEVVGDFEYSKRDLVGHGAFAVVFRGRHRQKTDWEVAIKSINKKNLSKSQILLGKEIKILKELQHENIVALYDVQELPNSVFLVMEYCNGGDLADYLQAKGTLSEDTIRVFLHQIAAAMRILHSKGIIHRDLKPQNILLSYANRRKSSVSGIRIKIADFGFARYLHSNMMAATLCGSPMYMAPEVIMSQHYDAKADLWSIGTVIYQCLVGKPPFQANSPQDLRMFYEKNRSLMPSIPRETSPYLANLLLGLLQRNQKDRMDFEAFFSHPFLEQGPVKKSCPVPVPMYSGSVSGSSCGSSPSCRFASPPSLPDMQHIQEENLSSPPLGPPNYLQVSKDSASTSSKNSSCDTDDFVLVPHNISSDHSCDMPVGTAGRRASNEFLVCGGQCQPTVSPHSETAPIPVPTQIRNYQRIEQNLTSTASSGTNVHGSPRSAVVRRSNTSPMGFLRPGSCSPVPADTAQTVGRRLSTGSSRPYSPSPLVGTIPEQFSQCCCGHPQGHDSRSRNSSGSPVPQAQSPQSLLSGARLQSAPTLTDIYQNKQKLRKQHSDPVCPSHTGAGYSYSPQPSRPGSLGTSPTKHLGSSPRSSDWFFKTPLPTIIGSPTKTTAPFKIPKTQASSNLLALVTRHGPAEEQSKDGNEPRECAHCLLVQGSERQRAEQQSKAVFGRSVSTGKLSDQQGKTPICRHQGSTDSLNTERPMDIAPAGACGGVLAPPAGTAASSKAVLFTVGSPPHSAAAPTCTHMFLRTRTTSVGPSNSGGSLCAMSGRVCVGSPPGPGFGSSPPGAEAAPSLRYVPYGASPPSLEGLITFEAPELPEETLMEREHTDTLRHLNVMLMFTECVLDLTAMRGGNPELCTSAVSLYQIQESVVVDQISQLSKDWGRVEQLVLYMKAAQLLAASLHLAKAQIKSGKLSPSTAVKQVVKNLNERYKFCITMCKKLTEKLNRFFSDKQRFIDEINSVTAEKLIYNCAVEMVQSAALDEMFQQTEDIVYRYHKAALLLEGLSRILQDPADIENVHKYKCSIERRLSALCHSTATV

[7] = target: MST4 (Homo sapiens, UniProt Q9P289)
[8] = target: p38a MAPK (Homo sapiens, UniProt Q16539)
[9] = target: EPH-A4 (Homo sapiens, UniProt P54764)
Chain of EPH-A4 (P54764 20-986, species assumed): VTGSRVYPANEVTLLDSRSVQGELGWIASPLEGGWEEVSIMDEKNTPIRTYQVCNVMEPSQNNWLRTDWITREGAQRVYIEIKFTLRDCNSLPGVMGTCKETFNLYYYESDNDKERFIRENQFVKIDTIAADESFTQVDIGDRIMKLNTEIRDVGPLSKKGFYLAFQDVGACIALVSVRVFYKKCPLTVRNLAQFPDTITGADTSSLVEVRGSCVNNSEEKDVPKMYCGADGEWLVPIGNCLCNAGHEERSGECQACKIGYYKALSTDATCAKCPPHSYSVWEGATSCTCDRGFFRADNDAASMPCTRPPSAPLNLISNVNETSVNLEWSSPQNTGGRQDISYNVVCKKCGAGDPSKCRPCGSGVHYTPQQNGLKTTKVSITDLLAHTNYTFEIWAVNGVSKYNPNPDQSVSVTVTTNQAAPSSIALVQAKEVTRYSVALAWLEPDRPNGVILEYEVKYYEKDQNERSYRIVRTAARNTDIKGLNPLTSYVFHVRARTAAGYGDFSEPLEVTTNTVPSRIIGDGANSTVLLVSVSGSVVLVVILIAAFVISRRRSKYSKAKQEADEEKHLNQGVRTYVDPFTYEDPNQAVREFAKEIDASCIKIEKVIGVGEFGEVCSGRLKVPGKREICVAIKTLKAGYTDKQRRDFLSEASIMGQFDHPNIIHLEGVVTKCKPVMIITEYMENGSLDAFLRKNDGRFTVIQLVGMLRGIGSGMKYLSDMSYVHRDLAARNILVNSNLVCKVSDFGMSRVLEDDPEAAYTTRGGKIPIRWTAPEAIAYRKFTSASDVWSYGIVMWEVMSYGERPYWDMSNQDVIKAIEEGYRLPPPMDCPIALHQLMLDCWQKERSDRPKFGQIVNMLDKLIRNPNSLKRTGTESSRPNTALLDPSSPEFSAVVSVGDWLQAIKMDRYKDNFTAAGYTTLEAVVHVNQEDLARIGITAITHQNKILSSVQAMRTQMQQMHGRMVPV

Chain of HIPK3 (Q9H422 whole entry, species assumed): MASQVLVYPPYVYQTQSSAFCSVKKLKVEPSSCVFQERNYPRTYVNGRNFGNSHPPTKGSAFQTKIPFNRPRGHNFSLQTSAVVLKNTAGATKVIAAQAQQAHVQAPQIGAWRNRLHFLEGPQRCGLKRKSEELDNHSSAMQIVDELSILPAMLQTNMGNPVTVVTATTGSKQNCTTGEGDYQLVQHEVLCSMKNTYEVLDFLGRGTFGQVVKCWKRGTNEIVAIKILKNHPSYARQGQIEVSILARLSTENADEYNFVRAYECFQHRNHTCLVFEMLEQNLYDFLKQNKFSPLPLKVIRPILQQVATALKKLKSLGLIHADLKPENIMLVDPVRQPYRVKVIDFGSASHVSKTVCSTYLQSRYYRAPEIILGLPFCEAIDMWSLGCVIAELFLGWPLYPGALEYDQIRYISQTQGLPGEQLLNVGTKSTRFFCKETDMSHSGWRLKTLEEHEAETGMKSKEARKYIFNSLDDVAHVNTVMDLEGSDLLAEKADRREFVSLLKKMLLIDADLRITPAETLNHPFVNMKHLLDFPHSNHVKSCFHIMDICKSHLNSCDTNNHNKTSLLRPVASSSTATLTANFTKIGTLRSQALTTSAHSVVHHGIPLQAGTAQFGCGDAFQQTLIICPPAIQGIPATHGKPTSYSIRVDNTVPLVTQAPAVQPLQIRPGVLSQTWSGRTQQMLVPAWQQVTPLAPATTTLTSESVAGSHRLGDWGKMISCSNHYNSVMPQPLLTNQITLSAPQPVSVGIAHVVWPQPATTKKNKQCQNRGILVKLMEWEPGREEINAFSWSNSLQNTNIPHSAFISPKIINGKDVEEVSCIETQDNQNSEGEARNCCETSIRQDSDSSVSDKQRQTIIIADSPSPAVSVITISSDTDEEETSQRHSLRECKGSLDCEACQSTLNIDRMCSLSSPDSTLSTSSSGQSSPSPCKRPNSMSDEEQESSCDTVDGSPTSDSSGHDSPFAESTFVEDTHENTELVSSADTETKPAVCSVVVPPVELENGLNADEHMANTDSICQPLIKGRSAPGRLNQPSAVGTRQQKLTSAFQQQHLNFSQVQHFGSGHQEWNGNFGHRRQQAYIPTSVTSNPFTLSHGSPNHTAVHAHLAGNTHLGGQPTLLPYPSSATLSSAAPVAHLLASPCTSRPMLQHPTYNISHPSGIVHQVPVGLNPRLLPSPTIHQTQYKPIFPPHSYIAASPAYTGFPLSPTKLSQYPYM
Chain of MKK2 (P36507 whole entry, species assumed): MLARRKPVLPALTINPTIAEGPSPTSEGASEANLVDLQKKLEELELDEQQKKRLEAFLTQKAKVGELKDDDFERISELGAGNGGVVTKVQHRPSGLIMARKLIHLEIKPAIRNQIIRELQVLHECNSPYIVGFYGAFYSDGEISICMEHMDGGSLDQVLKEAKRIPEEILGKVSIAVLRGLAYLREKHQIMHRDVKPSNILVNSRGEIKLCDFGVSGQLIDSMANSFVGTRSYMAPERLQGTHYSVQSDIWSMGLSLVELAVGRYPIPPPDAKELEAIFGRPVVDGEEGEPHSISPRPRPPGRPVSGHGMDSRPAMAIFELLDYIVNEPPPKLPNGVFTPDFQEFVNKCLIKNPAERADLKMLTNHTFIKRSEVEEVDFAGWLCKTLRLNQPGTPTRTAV
Chain of MST4 (Q9P289 whole entry, species assumed): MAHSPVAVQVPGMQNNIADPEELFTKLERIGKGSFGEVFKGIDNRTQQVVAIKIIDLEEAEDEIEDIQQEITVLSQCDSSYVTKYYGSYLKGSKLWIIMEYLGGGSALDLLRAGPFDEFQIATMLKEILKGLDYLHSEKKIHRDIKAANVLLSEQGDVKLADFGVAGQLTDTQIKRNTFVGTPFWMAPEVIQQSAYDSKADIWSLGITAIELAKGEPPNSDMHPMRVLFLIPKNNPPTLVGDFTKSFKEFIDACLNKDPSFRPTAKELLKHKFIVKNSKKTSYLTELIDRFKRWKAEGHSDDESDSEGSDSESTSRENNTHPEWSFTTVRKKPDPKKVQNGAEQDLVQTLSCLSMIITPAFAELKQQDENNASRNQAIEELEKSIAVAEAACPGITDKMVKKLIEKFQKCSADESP
Chain of p38a MAPK (Q16539 whole entry): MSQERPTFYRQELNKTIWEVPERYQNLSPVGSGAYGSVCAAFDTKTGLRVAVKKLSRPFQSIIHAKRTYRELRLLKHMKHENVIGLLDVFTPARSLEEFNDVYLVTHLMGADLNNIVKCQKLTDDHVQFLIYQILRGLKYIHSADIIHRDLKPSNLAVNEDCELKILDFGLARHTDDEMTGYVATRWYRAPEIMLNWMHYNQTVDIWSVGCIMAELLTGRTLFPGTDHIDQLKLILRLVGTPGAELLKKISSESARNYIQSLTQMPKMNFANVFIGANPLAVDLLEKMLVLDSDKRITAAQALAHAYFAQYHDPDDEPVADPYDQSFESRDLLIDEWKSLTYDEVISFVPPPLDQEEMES
Chain of MELK (Q14680 whole entry, species assumed): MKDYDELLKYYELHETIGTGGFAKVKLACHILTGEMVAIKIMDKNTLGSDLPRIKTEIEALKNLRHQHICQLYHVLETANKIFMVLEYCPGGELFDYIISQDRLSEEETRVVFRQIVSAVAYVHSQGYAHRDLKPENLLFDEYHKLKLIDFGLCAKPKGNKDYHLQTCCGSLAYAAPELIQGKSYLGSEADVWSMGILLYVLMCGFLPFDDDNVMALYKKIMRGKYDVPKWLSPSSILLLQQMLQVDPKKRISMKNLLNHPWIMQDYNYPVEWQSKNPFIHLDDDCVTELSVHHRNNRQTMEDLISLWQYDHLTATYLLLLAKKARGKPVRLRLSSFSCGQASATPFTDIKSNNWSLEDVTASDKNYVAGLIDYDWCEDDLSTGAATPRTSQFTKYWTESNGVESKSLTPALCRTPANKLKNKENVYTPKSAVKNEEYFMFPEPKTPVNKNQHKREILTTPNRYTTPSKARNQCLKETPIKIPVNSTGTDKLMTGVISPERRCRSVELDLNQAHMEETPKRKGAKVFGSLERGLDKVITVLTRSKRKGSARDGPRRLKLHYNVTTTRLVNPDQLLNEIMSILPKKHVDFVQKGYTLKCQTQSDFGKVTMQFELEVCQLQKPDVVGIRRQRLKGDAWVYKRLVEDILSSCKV

NCCCC[C@H](NC(=O)[C@H](CC(=O)O)NC(=O)[C@H](CC(=O)O)NC(=O)[C@H](CC(=O)O)NC(=O)[C@H](CC(=O)O)NC(=O)[C@H](CC(=O)O)NC(=O)[C@@H](CC(=O)O)NC(=O)CCCCCCCn1cnc2c(Br)c(Br)c(Br)c(Br)c21)C(=O)O [TBBI-OcA-(D-Asp)-(L-Asp)5-(L-Lys)-OH] (X1-[dD]DDDDDK-OH)
remaining activity at 1 µM [1]: 66% | remaining activity at 1 µM [2]: 75% | remaining activity at 1 µM [3]: 92% | remaining activity at 1 µM [4]: 93% | remaining activity at 1 µM [5]: 99% | remaining activity at 1 µM [6]: 110% | remaining activity at 1 µM [7]: 114% | remaining activity at 1 µM [8]: 116% | remaining activity at 1 µM [9]: 117%
